For one data set, the target named is Grh (UniProt P13002 551-1333). The experiment in a line: EMSA; EMSA, 20 ul, 30 min, room temperature; 5X buffer as printed: 20% glycerol, 1 mg/ml BSA, 2.5 mM EDTA, '50mM 1M tris' pH 7.5, 50 mM KCl, 5 mM MgCl2, 2.5 mM DTT, 90 ug/ml poly(dI-dC); proteins 100-200 ng. The settings on record: protein: recombinant; tags: 6xHis; chain copies: 2.
In a further data set the target is AbdA (Hox);Exd/Hth-HM (Drosophila melanogaster?;Drosophila …, UniProt P29555;P40427;O46339 261-590;1-376;127-211, |). The description is as above. The note with it: protein: recombinant;recombinant; tags: 6xHis;6xHis; copies: 1;1;1.
The target in a further data set is T1, Exd/Hth-HM (UniProt P40427;O46339 1-376;127-211).
T1 sequence 1: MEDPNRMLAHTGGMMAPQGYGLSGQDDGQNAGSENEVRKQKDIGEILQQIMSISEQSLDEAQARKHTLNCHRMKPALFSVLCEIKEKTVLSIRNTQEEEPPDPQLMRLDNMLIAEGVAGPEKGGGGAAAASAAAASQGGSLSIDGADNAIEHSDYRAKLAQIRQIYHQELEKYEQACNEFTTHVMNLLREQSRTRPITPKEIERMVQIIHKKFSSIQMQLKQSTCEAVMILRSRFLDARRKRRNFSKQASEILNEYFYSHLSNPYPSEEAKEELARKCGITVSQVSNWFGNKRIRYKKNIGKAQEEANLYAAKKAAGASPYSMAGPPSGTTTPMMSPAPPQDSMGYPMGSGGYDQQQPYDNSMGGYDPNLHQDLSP
T1 sequence 2: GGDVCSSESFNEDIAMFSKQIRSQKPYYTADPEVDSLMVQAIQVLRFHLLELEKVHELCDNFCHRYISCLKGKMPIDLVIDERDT
Kind of data set: EMSA; no significant binding; EMSA, 20 ul, 30 min, room temperature; 5X buffer as printed: 20% glycerol, 1 mg/ml BSA, 2.5 mM EDTA, '50mM 1M tris' pH 7.5, 50 mM KCl, 5 mM MgCl2, 2.5 mM DTT, 90 ug/ml poly(dI-dC); proteins 100-200 ng. The note with it: protein: recombinant; tags: 6xHis; copies: 1;1.

Data set [1] has as its target T2, AbdA (Hox) (UniProt P29555 261-590). Described as above. The note with it: protein: recombinant; tags: 6xHis.
The target in data set [2] is T2, AbdA (Hox). The experiment in a line: EMSA; EMSA, 20 ul, 30 min, room temperature; 5X buffer as printed: 20% glycerol, 1 mg/ml BSA, 2.5 mM EDTA, '50mM 1M tris' pH 7.5, 50 mM KCl, 5 mM MgCl2, 2.5 mM DTT, 90 ug/ml poly(dI-dC); proteins 100-200 ng. The note with it: protein: recombinant; tags: 6xHis. Background: In EMSA bound probe runs differently from free probe, usually more slowly.

Data set [3] deals with T3, AbdA (Hox);Grh (Drosophila melanogaster?;Drosophila …, UniProt P29555;P13002 261-590;551-1333, |). Described as above. The note with it: protein: recombinant;recombinant; tags: 6xHis;6xHis; copies: 1;2.
Data set [4] deals with T4, AbdA (Hox);Exd/Hth-HM;Grh (Drosophila melanogaster?;Drosophila …, UniProt P29555;P40427;O46339;P13002 261-590;1-376;127-211;551-1333, ||). Kind of data set: EMSA; completely abolished in text; largely per legend; EMSA, 20 ul, 30 min, room temperature; 5X buffer as printed: 20% glycerol, 1 mg/ml BSA, 2.5 mM EDTA, '50mM 1M tris' pH 7.5, 50 mM KCl, 5 mM MgCl2, 2.5 mM DTT, 90 ug/ml poly(dI-dC); proteins 100-200 ng. The note with it: protein: recombinant;recombinant;recombinant; tags: 6xHis;6xHis;6xHis; copies: 1;1;1;2.
Target sequence in this assay (P29555 261-590, chain 1 of 2): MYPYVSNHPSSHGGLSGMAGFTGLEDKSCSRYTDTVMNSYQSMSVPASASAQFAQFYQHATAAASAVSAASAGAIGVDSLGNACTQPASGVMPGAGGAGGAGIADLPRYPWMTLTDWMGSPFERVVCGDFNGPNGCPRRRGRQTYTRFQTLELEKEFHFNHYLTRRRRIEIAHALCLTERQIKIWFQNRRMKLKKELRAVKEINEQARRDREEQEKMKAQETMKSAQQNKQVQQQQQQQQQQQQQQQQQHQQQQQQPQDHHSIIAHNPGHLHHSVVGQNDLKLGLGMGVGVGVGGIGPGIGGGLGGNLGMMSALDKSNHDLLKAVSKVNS
Target sequence in this assay (P13002 551-1333, chain 4 of 2): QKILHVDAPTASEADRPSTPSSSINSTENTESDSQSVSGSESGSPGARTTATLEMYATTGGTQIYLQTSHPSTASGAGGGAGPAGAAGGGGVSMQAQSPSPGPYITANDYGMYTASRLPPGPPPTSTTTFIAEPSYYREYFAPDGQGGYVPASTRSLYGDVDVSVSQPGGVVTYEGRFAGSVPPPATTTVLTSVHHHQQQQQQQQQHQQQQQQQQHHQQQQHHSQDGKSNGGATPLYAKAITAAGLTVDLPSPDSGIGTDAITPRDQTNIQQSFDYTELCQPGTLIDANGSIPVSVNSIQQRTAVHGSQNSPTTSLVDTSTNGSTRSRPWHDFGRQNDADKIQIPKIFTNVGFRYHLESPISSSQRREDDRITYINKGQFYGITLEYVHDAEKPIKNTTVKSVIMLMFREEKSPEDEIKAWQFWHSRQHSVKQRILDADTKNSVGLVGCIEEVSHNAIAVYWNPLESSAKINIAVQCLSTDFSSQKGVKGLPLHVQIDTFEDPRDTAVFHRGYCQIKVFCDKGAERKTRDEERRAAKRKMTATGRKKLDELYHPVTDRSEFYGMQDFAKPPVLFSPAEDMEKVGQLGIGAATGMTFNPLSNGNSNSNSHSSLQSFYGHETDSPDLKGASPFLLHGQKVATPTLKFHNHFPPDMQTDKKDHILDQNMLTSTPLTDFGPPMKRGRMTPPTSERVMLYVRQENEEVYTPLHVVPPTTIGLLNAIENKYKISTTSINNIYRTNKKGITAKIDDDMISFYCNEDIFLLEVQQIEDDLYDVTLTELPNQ

Data set [5] deals with T4, AbdA (Hox);Exd/Hth-HM;Grh. Kind of data set: EMSA; EMSA, 20 ul, 30 min, room temperature; 5X buffer as printed: 20% glycerol, 1 mg/ml BSA, 2.5 mM EDTA, '50mM 1M tris' pH 7.5, 50 mM KCl, 5 mM MgCl2, 2.5 mM DTT, 90 ug/ml poly(dI-dC); proteins 100-200 ng. The settings on record: protein: recombinant;recombinant;recombinant; tags: 6xHis;6xHis;6xHis; copies: 1;1;1;2.
Target sequence in this assay (P29555 261-590, chain 1 of 4, one chain of several): as the sequence (P29555 261-590, chain 1 of 2) above
Target sequence in this assay (P13002 551-1333, chain 4 of 4, one chain of several): as the sequence (P13002 551-1333, chain 4 of 2) above
For data set [6], the target named is T3, AbdA (Hox);Grh. The experiment in a line: EMSA; 'compromised'; later 'abolished completely'; EMSA, 20 ul, 30 min, room temperature; 5X buffer as printed: 20% glycerol, 1 mg/ml BSA, 2.5 mM EDTA, '50mM 1M tris' pH 7.5, 50 mM KCl, 5 mM MgCl2, 2.5 mM DTT, 90 ug/ml poly(dI-dC); proteins 100-200 ng. The note with it: protein: recombinant;recombinant; tags: 6xHis;6xHis; copies: 1;2.

Chain of AbdA (Hox);Exd/Hth-HM (P29555 261-590, one chain of several): as the sequence (P29555 261-590, chain 1 of 2) above
T2 sequence (P29555 261-590): as the sequence (P29555 261-590, chain 1 of 2) above
T3 sequence (P29555 261-590, chain 1 of 2): as above
T3 sequence (P13002 551-1333, chain 2 of 2): as the sequence (P13002 551-1333, chain 4 of 2) above
Chain of Grh (P13002 551-1333): as the sequence (P13002 551-1333, chain 4 of 2) above

B1: motif-24 (dsDNA)
DNA 1: CGCTCATAAAGTTAACCAACGATTTCATTCCTAAAC
DNA 2: GTTTAGGAATGAAATCGTTGGTTAACTTTATGAGCG
With B1, the binding result is recorded as “no binding” with Grh, “binds” with AbdA (Hox);Exd/Hth-HM, “no binding” in the data set with Exd/Hth-HM and “no binding” with AbdA (Hox) [1].

B2: motif-30 Hox2 mutant (dsDNA)
DNA 1: GAAACAGGATAACCAGGACTAATCC
DNA 2: GGATTAGTCCTGGTTATCCTGTTTC
As to B2, the binding result with Grh is on record as “binds”; in the data set with AbdA (Hox);Exd/Hth-HM it was “no binding”; with AbdA (Hox) [2] it was “no binding”; with AbdA (Hox);Grh [3], “no binding”; in data set [4], “no binding”.

B3: motif-30 Grh1 mutant (dsDNA)
DNA 1: GAAACACGATAACCATAACTAATCC
DNA 2: GGATTAGTTATGGTTATCGTGTTTC
Take B3: the binding result in data set [5] is “no binding”; in the data set with AbdA (Hox);Exd/Hth-HM it was “binds”; with AbdA (Hox);Grh [6], “no binding”.
